From patent US20060084789A1, “Immunotherapeutic and immunoprphylactic reagents” (priority 2002, published 2006)

Legend:
RGP-specific TCL = assay: TCL proliferation assay (3H-thymidine incorporation, stimulation index); format: cell-based, human; conditions: for Proliferative response, stimulation index: peptides 10 μg/ml; for TCL that responded, response to allergen or peptide: allergen responsiveness considered as response to allergen or peptide; for TCL tested that responded to purified allergen: ten of fourteen TCL (Lol p 1), nine of fifteen TCL (Lol p 5), positive if SI ≥2.5
Experimental: Generation of Short-Term RGP-Specific TCL
PBMC were cultured in 24-well plates (Costar, Mass., USA) at 2.5×10^6 cells/well with RGP extract at a concentration of 25 or 50 μg/ml in RPMI 1640 medium (Gibco BRL, NY, USA) supplemented with 2 mM GlutaMAX I (Gibco BRL), 0.05 mg/ml gentamicin (David Bull Laboratories, Mulgrave, Victoria, Australia) and 5% heat-inactivated hunan AB^+ serum (Sigma, Mo., USA) for 7 days at 37° C. in a 5% CO2 humidified incubator. At day 7, cells were washed once and restimulated in 24-well plates at 5×10^5 cells/well width 25 or 50 μg/ml of RGP extract in the presence of 5×10^5 cells/well irradiated (3000 rads) autologous PBMC as a source of antigen presenting cells (APC). At day 2 following restimulation, 10 U/ml of Lymphocult T-LF (LC; Biotest, Germany) was added as a source of IL-2 and at day 4, 1 ml of culture medium was removed and replaced with fresh medium and 10 U/ml of LC. […] In all experiments T cells were rested for 6 to 7 days after the last addition of antigen and APC before testing.
T cells (5×10^4/well) were cultured in 96-well U bottom plates with either RGP extract at concentrations ranging from 25 to 200 μg/ml, purified Lol p 1 (0.12 to 2 μg/ml) or Lol p 5 (0.1 to 10 μg/ml), or Lol p 1 or Lol p 5 peptides (10 μg/ml), or medium alone (to determine background levels of proliferation), in the presence of washed autologous irradiated (3000 rads) PBMC (5×10^4/well). […] Cultures were incubated for 3 days, pulsed for the last 16 hours with ^3H-thymidine (1 μCi/well) and harvested onto glass fibre filters. ^3H-thymidine incorporation was measured by liquid scintillation spectroscopy and the mean counts per minute (cpm) for triplicate cultures was determined. Responses were considered positive if the stimulation index (SI, cpm of antigen-stimulated T cells divided by cpm of unstimulated T cells) was ≧2.5. Where several concentrations of allergen were tested (i.e., RGP, Lol p 1 and Lol p 5), values corresponding to the highest proliferation are shown.

[1] = test system: oligoclonal house dust mite (HDM)- or low ammoniated latex (LAL)-reactive CD44^+ T cells; assay: Mitogenicity check with irrelevant-antigen T cells and irradiated autologous PBMC; format: cell-based; conditions: culture with HDM- or LAL-reactive T cells and irradiated autologous PBMC; data not shown
Description: Mitogenicity of RGP, Lol p 1, Lol p 5 and peptides was excluded by culturing with oligoclonal house dust mite (HDM)- or low ammoniated latex (LAL)-reactive CD44^+ T cells in the presence of irradiated autologous PBMC, and toxicity was excluded by co-culture of antigens with HDM- or LAL-reactive T cells in the presence of IL-2 (data not shown).

B1: Lol p 1: Rye grass pollen allergen purified from crude RGP extracts by SDS-PAGE (protein)
chain: IAKVPPGPNITAEYGDKWLDAKSTWYGKPTGAGPKDNCGACGYKDVDKAPFNGMTGCGNTPIFKDGRGCGSCFEIKCTKPESCSGEAVTVTITDDNEEPIAPYHFDLSGHAFGSMAKKGEEQKLRASAGELELQFRRVKCKYPDGTKPTFHVEKASNPNYLAILVKYVDGDGDVVAVDIKEKGKDKWIELKESWGAVWRIDTPDKLTGPFTVRYTTEGGTKSEVEDVIPEGWKADTSYSAK
modifications: Lolium perenne
notes: Rye grass pollen allergen purified from crude RGP extracts by SDS-PAGE
Proliferative response, stimulation index (RGP-specific TCL; Subject 1 TCL, Lol p 1 series (Table 3), RGP and Lol p 1 maximal response): 5.9
Proliferative response, stimulation index (RGP-specific TCL; Subject 2 TCL, Lol p 1 series (Table 3), RGP and Lol p 1 maximal response): 3.0
Proliferative response, stimulation index (RGP-specific TCL; Subject 4 TCL, Lol p 1 series (Table 3), RGP and Lol p 1 maximal response): 2.9
Proliferative response, stimulation index (RGP-specific TCL; Subject 5 TCL, Lol p 1 series (Table 3), RGP and Lol p 1 maximal response): 2.5
Proliferative response, stimulation index (RGP-specific TCL; Subject 6 TCL, Lol p 1 series (Table 3), RGP and Lol p 1 maximal response): 4.0
Proliferative response, stimulation index (RGP-specific TCL; Subject 8 TCL, Lol p 5 series (Table 4), RGP and Lol p 5 maximal response): 4.3
Proliferative response, stimulation index (RGP-specific TCL; Subject 11 TCL, Lol p 5 series (Table 4), RGP and Lol p 5 maximal response): 3.4
Proliferative response, stimulation index (RGP-specific TCL; Subject 15 TCL, Lol p 1 series (Table 3), RGP and Lol p 1 maximal response): 0.3
Proliferative response, stimulation index (RGP-specific TCL; Subject 19 TCL, Lol p 1 series (Table 3), RGP and Lol p 1 maximal response): 10.5
Proliferative response, stimulation index (RGP-specific TCL; Subject 27 TCL, Lol p 5 series (Table 4), RGP and Lol p 5 maximal response, † affinity purified Lol p 5): 3.8†
Proliferative response, stimulation index (RGP-specific TCL; Subject 38 TCL, Lol p 5 series (Table 4), RGP and Lol p 5 maximal response, * SDS-PAGE purified Lol p 5): 3.2*
TCL that responded, response to allergen or peptide (RGP-specific TCL): 79%
TCL tested that responded to purified allergen (RGP-specific TCL): 71%
Mitogenicity [1]: excluded

B2: Lol p 5: Rye grass pollen allergen purified from RGP extract by SDS-PAGE or affinity chromatography (mAb FMC A7) (protein)
chain: ADAGYTPAAAATPATPAATPAAAGGKATTDEQKLLEDVNAGFKAAVAAAANAPPADKFKIFEAAFSESSKGLLATSAAKAPGLIPKLDTAYDVAYKAAEGATPEAKYDAFVTALTEALRVIAGALEVHAVKPATEEVPAAKIPTGELQIVDKIDAAFKIAATAANAAPTNDKFTVFESAFNKALNECTGGAYETYKFIPSLEAAVKQAYAATVAAAPEVKYAVFEAALTKAITAMTQAQKAGKPAAAAATGAATVATGAATAAAGAATAAAGGYKA
TCL that responded, response to allergen or peptide (RGP-specific TCL): 91%
TCL tested that responded to purified allergen (RGP-specific TCL): 60%
Mitogenicity [1]: excluded
